Measured values from IntAct's records for PubMed 19759014.

B1: Zinc transporter 6 (Homo sapiens), Q6NXT4 (parent)
chain: MGTIHLFRKPQRSFFGKLLREFRLVAADRRSWKILLFGVINLICTGFLLMWCSSTNSIALTAYTYLTIFDLFSLMTCLISYWVTLRKPSPVYSFGFERLEVLAVFASTVLAQLGALFILKESAERFLEQPEIHTGRLLVGTFVALCFNLFTMLSIRNKPFAYVSEAASTSWLQEHVADLSRSLCGIIPGLSSIFLPRMNPFVLIDLAGAFALCITYMLIEINNYFAVDTASAIAIALMTFGTMYPMSVYSGKVLLQTTPPHVIGQLDKLIREVSTLDGVLEVRNEHFWTLGFGSLAGSVHVRIRRDANEQMVLAHVTNRLYTLVSTLTVQIFKDDWIRPALLSGPVAANVLNFSDHHVIPMPLLKGTDDLNPVTSTPAKPSSPPPEFSFNTPGKNVNPVILLNTQTRPYGFGLNHGHTPYSSMLNQGLGVPGIGATQGLRTGFTNIPSRYGTNNRIGQPRP

Variants of: B1
Settings: with znt5_human SLC30A5, Q8TAD4
znt5_human SLC30A5, Q8TAD4, sequence (Q8TAD4 whole entry): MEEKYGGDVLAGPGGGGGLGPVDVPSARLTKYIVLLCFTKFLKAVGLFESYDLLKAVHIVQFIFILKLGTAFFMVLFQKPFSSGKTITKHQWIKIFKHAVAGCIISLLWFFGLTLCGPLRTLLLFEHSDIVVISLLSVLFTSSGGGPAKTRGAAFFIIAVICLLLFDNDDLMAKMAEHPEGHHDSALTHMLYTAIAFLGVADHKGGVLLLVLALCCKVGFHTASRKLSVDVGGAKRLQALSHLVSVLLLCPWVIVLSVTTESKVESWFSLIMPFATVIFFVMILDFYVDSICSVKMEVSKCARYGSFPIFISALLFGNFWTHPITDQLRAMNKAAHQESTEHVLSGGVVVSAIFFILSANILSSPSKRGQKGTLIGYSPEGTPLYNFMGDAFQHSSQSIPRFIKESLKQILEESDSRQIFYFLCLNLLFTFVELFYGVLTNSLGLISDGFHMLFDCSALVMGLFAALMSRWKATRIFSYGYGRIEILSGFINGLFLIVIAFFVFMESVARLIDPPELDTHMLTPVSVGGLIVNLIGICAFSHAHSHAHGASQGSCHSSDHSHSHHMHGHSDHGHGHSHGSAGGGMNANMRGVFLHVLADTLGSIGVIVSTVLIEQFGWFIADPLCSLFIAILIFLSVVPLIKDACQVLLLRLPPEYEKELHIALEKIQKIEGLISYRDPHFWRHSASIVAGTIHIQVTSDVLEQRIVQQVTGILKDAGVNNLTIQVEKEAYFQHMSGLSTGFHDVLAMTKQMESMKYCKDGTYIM

Variant	effect of a mutation on the interaction
MGTIHLFRKPQRSFFGKLLREFRLVAADRRSWKILLFGVINLICTGFLLMWCSSTNSIALTAYTYLTIFALFSLMTCLISYWVTLRKPSPVYSFGFERLEVLAVFASTVLAQLGALFILKESAERFLEQPEIHTGRLLVGTFVALCFNLFTMLSIRNKPFAYVSEAASTSWLQEHVADLSRSLCGIIPGLSSIFLPRMNPFVLIALAGAFALCITYMLIEINNYFAVDTASAIAIALMTFGTMYPMSVYSGKVLLQTTPPHVIGQLDKLIREVSTLDGVLEVRNEHFWTLGFGSLAGSVHVRIRRDANEQMVLAHVTNRLYTLVSTLTVQIFKDDWIRPALLSGPVAANVLNFSDHHVIPMPLLKGTDDLNPVTSTPAKPSSPPPEFSFNTPGKNVNPVILLNTQTRPYGFGLNHGHTPYSSMLNQGLGVPGIGATQGLRTGFTNIPSRYGTNNRIGQPRP [D70A;D205A]	with no effect
MGTIHLFRKPQRSFFGKLLREFRLVAADRRSWKILLFGVINLICTGFLLMWCSSTNSIALTAYTYHTIFDLFSLMTCLISYWVTLRKPSPVYSFGFERLEVLAVFASTVLAQLGALFILKESAERFLEQPEIHTGRLLVGTFVALCFNLFTMLSIRNKPFAYVSEAASTSWLQEHVADLSRSLCGIIPGLSSIFLPRMNPHVLIDLAGAFALCITYMLIEINNYFAVDTASAIAIALMTFGTMYPMSVYSGKVLLQTTPPHVIGQLDKLIREVSTLDGVLEVRNEHFWTLGFGSLAGSVHVRIRRDANEQMVLAHVTNRLYTLVSTLTVQIFKDDWIRPALLSGPVAANVLNFSDHHVIPMPLLKGTDDLNPVTSTPAKPSSPPPEFSFNTPGKNVNPVILLNTQTRPYGFGLNHGHTPYSSMLNQGLGVPGIGATQGLRTGFTNIPSRYGTNNRIGQPRP [L66H;F201H]	with no effect
